Measured values as given in article doi:10.1101/2021.07.20.453058 (bioRxiv, 2021).

Columns and labels:
Test in all cases: native gel or EMSA
[1] = target: KaiA3-His6 (Synechocystis sp. PCC 6803)
[2] = target: KaiB3 (recombinant, GST-tag removed) (Synechocystis sp. PCC 6803)
[3] = target: Strep-KaiC3 (Synechocystis sp. PCC 6803)
native gel or EMSA = target: the molecule itself

Molecule: KaiA3-His6 (natural protein)
- stoichiometry N [1]: > 2

Molecule: KaiB3 (recombinant, GST-tag removed) (natural protein)
- stoichiometry N [2]: 4

Molecule: Strep-KaiC3 (natural protein)
- stoichiometry N [3]: 6

B1: Synechococcus KaiA (recombinant, GST-tag removed) (natural protein, Synechococcus elongatus PCC 7942, UniProt Q79PF6 1-284, looked up)
chain: MLSQIAICIWVESTAILQDCQRALSADRYQLQVCESGEMLLEYAQTHRDQIDCLILVAANPSFRAVVQQLCFEGVVVPAIVVGDRDSEDPDEPAKEQLYHSAELHLGIHQLEQLPYQVDAALAEFLRLAPVETMADHIMLMGANHDPELSSQQRDLAQRLQERLGYLGVYYKRDPDRFLRNLPAYESQKLHQAMQTSYREIVLSYFSPNSNLNQSIDNFVNMAFFADVPVTKVVEIHMELMDEFAKKLRVEGRSEDILLDYRLTLIDVIAHLCEMYRRSIPRET
- stoichiometry N (native gel or EMSA): 2
